Experimental data taken from US20180044434A1 (PUBLIC UNIVERSITY CORPORATION YOKOHAMA CITY UNIVERSITY, published 2018).
Read-outs that look alike come from different tables or passages of the source.

How the values were obtained:
[1] = biological target: T1, full-length recombinant human PAD4 (human, UniProt Q9UM07 1-663); test: ELISA, immobilized human PAD4
T1 construct: Full-length recombinant; also called peptidylarginine deiminase 4

[2] = biological target: T1, full-length recombinant human PAD4; test: ELISA, immobilized human PAD4; remark: listed apart in the source
[3] = biological target: T1, full-length recombinant human PAD4; test: ELISA, immobilized human PAD4; remark: listed apart in the source
[4] = biological target: T1, full-length recombinant human PAD4; test: SPR (Biacore T200), antibody captured, human PAD4 analyte
Description: The humanized anti-PAD4 antibodies derived from G8 and H7 were subjected to Biacore (GE Healthcare, Biacore T200) assay to evaluate their affinity. At that time, the combination of the frameworks was such that the H-chain framework was H4.00 and the L-chain framework was L4.29. The class of each antibody used was IgG1κ. Full-length recombinant human PAD4 was used as an antigen. A Human Antibody Capture kit (GE Healthcare, BR-1008-39) was used for the affinity assay. Specifically, in accordance with the standard protocol provided by the manufacture, NHS/EDC was used and an amine coupling method, in which a free carboxyl group is fixed on a surface of a CM5 chip, was used to immobilize a rabbit anti-human polyclonal antibody on the surface of a CM5 chip. Next, the humanized anti-PAD4 antibodies were each captured by the rabbit anti-human polyclonal antibody. Human PAD4 at each concentration was subjected to Biacore T200 measurement to create a kinetic sensorgram.

[5] = biological target: T1, full-length recombinant human PAD4; test: ELISA, immobilized human PAD4; remark: listed apart in the source

T1 sequence (Q9UM07 whole entry): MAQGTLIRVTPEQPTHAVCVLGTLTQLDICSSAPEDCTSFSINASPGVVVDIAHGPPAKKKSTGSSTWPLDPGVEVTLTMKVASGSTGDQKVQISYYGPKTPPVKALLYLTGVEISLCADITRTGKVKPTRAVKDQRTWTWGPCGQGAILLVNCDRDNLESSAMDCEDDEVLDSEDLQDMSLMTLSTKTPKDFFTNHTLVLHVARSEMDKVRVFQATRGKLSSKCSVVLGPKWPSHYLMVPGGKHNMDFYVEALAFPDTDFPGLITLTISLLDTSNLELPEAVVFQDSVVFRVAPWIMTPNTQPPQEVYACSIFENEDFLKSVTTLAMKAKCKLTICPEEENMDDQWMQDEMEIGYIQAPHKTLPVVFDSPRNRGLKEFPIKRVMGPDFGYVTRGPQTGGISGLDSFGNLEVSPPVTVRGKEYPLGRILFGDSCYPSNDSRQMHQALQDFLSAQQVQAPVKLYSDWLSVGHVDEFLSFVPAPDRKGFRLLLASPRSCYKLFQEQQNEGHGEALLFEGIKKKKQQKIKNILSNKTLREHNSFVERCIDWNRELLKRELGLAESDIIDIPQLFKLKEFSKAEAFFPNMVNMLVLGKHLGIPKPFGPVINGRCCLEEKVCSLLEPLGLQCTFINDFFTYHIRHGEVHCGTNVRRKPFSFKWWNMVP

EC50 (read off the curve) [1] | O.D. 490/630 at 0 µg/mL (blank) [1] | O.D. 490/630 at 0.000064 µg/mL [1] | O.D. 490/630 at 0.00032 µg/mL [1] | O.D. 490/630 at 0.0016 µg/mL [1] | O.D. 490/630 at 0.008 µg/mL [1] | O.D. 490/630 at 0.04 µg/mL [1] | O.D. 490/630 at 0.2 µg/mL [1] | O.D. 490/630 at 1 µg/mL [1] | O.D. 490/630 at 0.0078125 µg/mL [2] | O.D. 490/630 at 0.015625 µg/mL [2] | O.D. 490/630 at 0.03125 µg/mL [2] | O.D. 490/630 at 0.0625 µg/mL [2] | O.D. 490/630 at 0.125 µg/mL [2] | O.D. 490/630 at 0.25 µg/mL [2] | O.D. 490/630 at 0.5 µg/mL [2] | O.D. 490/630 at 1 µg/mL [2] | other results | Binder
~3 ng/mL | 0.064 | 0.122 | 0.245 | 0.733 | 1.7 | 2.08 | 2.08 | 2.08 |  |  |  |  |  |  |  |  |  | humanized anti-PAD4 antibody derived from A11 (H4.00/L4.29, IgG1 kappa) (antibody, V domains shown, also called humanized A11) VH: not shown VL: SYELTQPPSVSVSPGQTARITCSGGGRYYYGWYQQKPGQAPVTVIYANDKRPSGIPERFSGSNSGSTTTLTISGVQAEDEADYYCGSAETSSYVFGGGTKLTVLG
~3 ng/mL | 0.069 | 0.116 | 0.252 | 0.785 | 1.66 | 2.09 | 2.03 | 2.06 |  |  |  |  |  |  |  |  |  | humanized anti-PAD4 antibody derived from G9 (H4.00/L4.29, IgG1 kappa) (antibody, V domains shown, also called humanized G9) VH: not shown VL: SYELTQPPSVSVSPGQTARITCSGGGRYYYGWYQQKPGQAPVTVIYANDKRPSGIPERFSGSNSGSTTTLTISGVQAEDEADYYCGSAETSSYVFGGGTKLTVLG
 |  |  |  |  |  |  |  |  | 0.131 | 0.247 | 0.454 | 0.806 | 1.31 | 1.7 | 1.84 | 1.88 | EC50 (read off the curve) [3]: ~80 ng/mL | humanized anti-PAD4 antibody derived from G8, VH H4.00 / VL L4.00 (antibody, human IgG1, kappa, V domains shown, IgG1 kappa; also called G8 H4.00/L4.00) VH: not shown VL: SYELTQPPSVSVSPGQTARITCSGGNRNYYYGWYQQKPGQAPVLVIYANDKRPSGIPERFSGSSSGTTVTLTISGVQAEDEADYYCGTADTGKYVFGGGTKLTVLG
 |  |  |  |  |  |  |  |  | 0.364 | 0.649 | 1.05 | 1.52 | 1.76 | 1.84 | 1.91 | 1.87 |  | humanized anti-PAD4 antibody derived from G8, VH H4.32 / VL L4.00 (antibody, IgG1, V domains shown, IgG1 kappa; also called G8 H4.32/L4.00) VH: EVQLLESGGGLVQPGGSLRLSCAASGFTFSTYAMGWVRQAPGKGLEFVAAIRNDGSWTGYGAAVKGRVTISRDNSKNTVYLQMNSLRAEDTAVYYCAKYTGSSGGSIGAWGQGTLVTVSS VL: SYELTQPPSVSVSPGQTARITCSGGNRNYYYGWYQQKPGQAPVLVIYANDKRPSGIPERFSGSSSGTTVTLTISGVQAEDEADYYCGTADTGKYVFGGGTKLTVLG
 |  |  |  |  |  |  |  |  | 1.2 | 1.56 | 1.83 | 1.88 | 1.89 | 1.83 | 1.83 | 1.82 |  | humanized anti-PAD4 antibody derived from G8, VH H4.32 / VL L4.17 (antibody, IgG1, V domains shown, IgG1 kappa; also called G8 H4.32/L4.17) VH: EVQLLESGGGLVQPGGSLRLSCAASGFTFSTYAMGWVRQAPGKGLEFVAAIRNDGSWTGYGAAVKGRVTISRDNSKNTVYLQMNSLRAEDTAVYYCAKYTGSSGGSIGAWGQGTLVTVSS VL: SYELTQPPSVSVSPGQTARITCSGGNRNYYYGWYQQKPGQAPVTVIYANDKRPSGIPERFSGSTSGNTTTLTISGVQAEDEADYYCGTADTGKYVFGGGTKLTVLG
 |  |  |  |  |  |  |  |  | 1.21 | 1.6 | 1.82 | 1.91 | 1.86 | 1.85 | 1.81 | 1.79 |  | humanized anti-PAD4 antibody derived from G8, VH H4.32 / VL L4.06 (antibody, IgG1, V domains shown, IgG1 kappa; also called G8 H4.32/L4.06) VH: EVQLLESGGGLVQPGGSLRLSCAASGFTFSTYAMGWVRQAPGKGLEFVAAIRNDGSWTGYGAAVKGRVTISRDNSKNTVYLQMNSLRAEDTAVYYCAKYTGSSGGSIGAWGQGTLVTVSS VL: SYELTQPPSVSVSPGQTARITCSGGNRNYYYGWYQQKPGQAPVTVIYANDKRPSGIPERFSGSYSGNTTTLTISGVQAEDEADYYCGTADTGKYVFGGGTKLTVLG
 |  |  |  |  |  |  |  |  | 1.26 | 1.69 | 1.88 | 1.9 | 1.89 | 1.85 | 1.84 | 1.84 |  | humanized anti-PAD4 antibody derived from G8, VH H4.32 / VL L4.29 (antibody, IgG1, V domains shown, IgG1 kappa; also called G8 H4.32/L4.29) VH: EVQLLESGGGLVQPGGSLRLSCAASGFTFSTYAMGWVRQAPGKGLEFVAAIRNDGSWTGYGAAVKGRVTISRDNSKNTVYLQMNSLRAEDTAVYYCAKYTGSSGGSIGAWGQGTLVTVSS VL: SYELTQPPSVSVSPGQTARITCSGGNRNYYYGWYQQKPGQAPVTVIYANDKRPSGIPERFSGSNSGSTTTLTISGVQAEDEADYYCGTADTGKYVFGGGTKLTVLG
 |  |  |  |  |  |  |  |  | 1.15 | 1.56 | 1.85 | 1.91 | 1.86 | 1.86 | 1.81 | 1.84 |  | humanized anti-PAD4 antibody derived from G8, VH H4.15 / VL L4.29 (antibody, human IgG1, kappa, V domains shown, IgG1 kappa; also called G8 H4.15/L4.29) VH: EVQLLESGGGLVQPGGSLRLSCAASGFTFSTYAMGWVRQAPGKGLEFVSAIRNDGSWTGYGAAVKGRFTISRDNSKNTVYLQMNSLRAEDTAVYYCAKYTGSSGGSIGAWGQGTLVTVSS VL: SYELTQPPSVSVSPGQTARITCSGGNRNYYYGWYQQKPGQAPVTVIYANDKRPSGIPERFSGSNSGSTTTLTISGVQAEDEADYYCGTADTGKYVFGGGTKLTVLG
~2 ng/mL | 0.069 | 0.139 | 0.287 | 0.851 | 1.79 | 2.12 | 2.1 | 2.06 | 1.2 | 1.55 | 1.88 | 1.88 | 1.85 | 1.84 | 1.82 | 1.8 | Kd [4]: 1.95 nM; koff [4]: 0.0002 s⁻¹; kon [4]: 103000 M⁻¹ s⁻¹ | Humanized Ab #G8-H4.00/L4.29 (antibody, human IgG1, kappa, V domains shown, also called humanized anti-PAD4 antibody derived from G8 (IgG1 kappa); G8 VH H4.00 / VL L4.29) VH: not shown VL: SYELTQPPSVSVSPGQTARITCSGGNRNYYYGWYQQKPGQAPVTVIYANDKRPSGIPERFSGSNSGSTTTLTISGVQAEDEADYYCGTADTGKYVFGGGTKLTVLG
~3 ng/mL | 0.083 | 0.13 | 0.269 | 0.766 | 1.72 | 2.1 | 2.07 | 2.08 |  |  |  |  |  |  |  |  | Kd [4]: 8.28 nM; koff [4]: 0.000507 s⁻¹; kon [4]: 61300 M⁻¹ s⁻¹ | Humanized Ab #H7-H4.00/L4.29 (antibody, human IgG1, kappa, also called humanized anti-PAD4 antibody derived from H7 (IgG1 kappa)) heavy: not shown light: SYELTQPPSVSVSPGQTARITCSGGSGRYYYGWYQQKPGQAPVTVIYSSTHRPSGIPERFSGSNSGSTTTLTISGVQAEDEADYYCGTADSSSYVFGGGTKLTVLGTVAAPSVFIFPPSDEQLKSGTASVVCLLNNFYPREAKVQWKVDNALQSGNSQESVTEQDSKDSTYSLSSTLTLSKADYEKHKVYACEVTHQGLSSPVTKSFNRGEC
 |  |  |  |  |  |  |  |  |  |  |  |  |  |  |  |  | EC50 (read off the curve) [5]: ~4 ng/mL | H7-derived, humanized anti-PAD4 antibody (IgG4A) (antibody, it may be this one; also called humanized anti-PAD4 antibody (IgG4A) derived from H7) heavy: not shown light: SYELTQPPSVSVSPGQTARITCSGGSGRYYYGWYQQKPGQAPVTVIYSSTHRPSGIPERFSGSNSGSTTTLTISGVQAEDEADYYCGTADSSSYVFGGGTKLTVLGQPKAAPSVTLFPPSSEELQANKATLVCLISDFYPGAVTVAWKADSSPVKAGVETTTPSKQSNNKYAASSYLSLTPEQWKSHRSYSCQVTHEGSTVEKTVAPTECS
